These results are taken from patent publication US20180186891A1 (PHILOGEN, published 2018).

This assay concerns the target T1, biotinylated Mouse FAP extracellular domain (mouse, UniProt P97321 26-761, biotinylated (site not stated)).
T1 construct: extracellular domain; also called murine antigen
T1 sequence (looked up): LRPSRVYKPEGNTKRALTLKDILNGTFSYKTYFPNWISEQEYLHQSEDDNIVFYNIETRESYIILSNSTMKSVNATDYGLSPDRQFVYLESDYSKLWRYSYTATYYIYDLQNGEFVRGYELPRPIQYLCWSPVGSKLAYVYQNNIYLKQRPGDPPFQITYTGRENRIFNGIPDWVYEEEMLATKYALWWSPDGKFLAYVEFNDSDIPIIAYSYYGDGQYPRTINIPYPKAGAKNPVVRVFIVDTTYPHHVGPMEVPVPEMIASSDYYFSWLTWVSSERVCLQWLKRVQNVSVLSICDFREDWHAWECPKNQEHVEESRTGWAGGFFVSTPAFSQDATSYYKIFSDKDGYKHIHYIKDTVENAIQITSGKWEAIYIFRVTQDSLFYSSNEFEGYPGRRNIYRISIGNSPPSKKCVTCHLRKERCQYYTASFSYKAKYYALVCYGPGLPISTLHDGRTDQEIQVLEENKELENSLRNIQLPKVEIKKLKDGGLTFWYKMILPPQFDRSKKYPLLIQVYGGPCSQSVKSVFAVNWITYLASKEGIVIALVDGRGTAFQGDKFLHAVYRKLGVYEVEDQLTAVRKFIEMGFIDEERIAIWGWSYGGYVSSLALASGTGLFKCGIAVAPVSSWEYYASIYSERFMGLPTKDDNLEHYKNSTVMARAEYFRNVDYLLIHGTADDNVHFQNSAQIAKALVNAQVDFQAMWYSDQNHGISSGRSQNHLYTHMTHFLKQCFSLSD
Briefly: ELISA, biotinylated FAP extracellular domain on streptavidin strips, detection with anti-Myc 9E10. The method, then: ELISA: Streptawell High Bind strips (Roche) were coated with biotinylated Human or Mouse FAP extracellular domain at 100 nM. Cross reactivity with human and murine antigen of the anti-FAP F5 antibody was assessed by detection with the anti-Myc antibody 9E10 and an HRP-conjugated anti-Murine Fc antibody (Sigma). Calorimetric detection of antibody-antigen binding was performed using BM-Blue POD soluble substrate (Roche).

B1: antibody F5 (in scFv format) (scFv, V domains shown)
VH: EVQLLESGGGLVQPGGSLRLSCAASGFTFSPAYMSWVRQAPGKGLEWVSAISGSGGSTYYADSVKGRFTISRDNSKNTLYLQMNSLRAEDTAVYYCAKGWRAFDYWGQGTLVTVSS
VL: EIVLTQSPGTLSLSPGERATLSCRASQSVSRNYLAWYQQKPGQAPRLLIYGASSRATGIPDRFSGSGSGTDFTLTISRLEPEDFAVYYCQQSLGYPPTFGQGTKVEIK
notes: Tested as a single-chain Fv; Detection with anti-Myc antibody 9E10 implies a myc tag; also called F5 antibody; anti-FAP F5 antibody
For the molecule B1, the binding result is on record as “binds”.
